Experimental data taken from CN110272489A.

B1: mab15 (鼠源抗体) (antibody, V domains shown)
VH: EVKLVESEGGLVQPGSSMKLSCTASGFTFSDYYMTWVRQVPEKGLEWVASINYDGRNTYYLDSLKSRFIISRDNAKNILYLQMSSLKSEDTATYYCARGYYYYGSSPNYFDYWGQGTTLTVSS
VL: DIQMTQSPASLSASVGETVTITCRASENIYSYLTWYQQKQGKSPQLLVYNAKTLAEGVPSRFSGSGSGTQFSLRINSLQPEDFGNYYCQQHYGTPLTFGAGTKLELK
B2: 人源化ab32抗体 (全人源化抗体) (antibody, human IgG4 S228P, kappa, V domains shown)
VH: EVQLVESGGGLVKPGGSLRLSCAASGFTFSDYYMTWVRQAPGKGLEWVSSINYDGRNTYYLDSLKSRFTISRDNAKNSLYLQMNSLRAEDTAVYYCARGYYYYGSSPNYFDYWGQGTLVTVSS
VL: DIQMTQSPSSLSASVGDRVTITCRASENIYSYLTWYQQKPGKAPKLLIYNAKTLAEGVPSRFSGSGSGTDFTLTISSLQPEDFATYYCQQHYGTPLTFGQGTKLEIKR

How the values were obtained:
[1] = molecular target: 人TIM-3 (recombinant antigen of the ELISA of Example 3: TIM-3-hFc captured on goat-anti-hFc, or Tim-3-his coated directly) (human) (UniProt Q8TDQ0); assay: ELISA of hybridoma supernatant on human TIM-3 (Example 3)
[2] = molecular target: 狨猴(marmoset) Tim-3蛋白 (狨猴(marmoset)) (UniProt F7I881); assay: ELISA, against ABTIM3 as reference

Binder	ELISA 数值(OD450) [1] [OD450]	fold stronger than the positive control molecule [2] [fold]
B1	1.14	
B2		> 4
